Target: Exportin-1 (XPO1), endogenous (UniProt O14980)
Experiment: co-IP (GFP pulldown) and western blot, semi-quantification
Details: stable U2OS cell lines, parent: est. 0.60, read off a plot

Chain of UniProt O14980 (O14980 whole entry): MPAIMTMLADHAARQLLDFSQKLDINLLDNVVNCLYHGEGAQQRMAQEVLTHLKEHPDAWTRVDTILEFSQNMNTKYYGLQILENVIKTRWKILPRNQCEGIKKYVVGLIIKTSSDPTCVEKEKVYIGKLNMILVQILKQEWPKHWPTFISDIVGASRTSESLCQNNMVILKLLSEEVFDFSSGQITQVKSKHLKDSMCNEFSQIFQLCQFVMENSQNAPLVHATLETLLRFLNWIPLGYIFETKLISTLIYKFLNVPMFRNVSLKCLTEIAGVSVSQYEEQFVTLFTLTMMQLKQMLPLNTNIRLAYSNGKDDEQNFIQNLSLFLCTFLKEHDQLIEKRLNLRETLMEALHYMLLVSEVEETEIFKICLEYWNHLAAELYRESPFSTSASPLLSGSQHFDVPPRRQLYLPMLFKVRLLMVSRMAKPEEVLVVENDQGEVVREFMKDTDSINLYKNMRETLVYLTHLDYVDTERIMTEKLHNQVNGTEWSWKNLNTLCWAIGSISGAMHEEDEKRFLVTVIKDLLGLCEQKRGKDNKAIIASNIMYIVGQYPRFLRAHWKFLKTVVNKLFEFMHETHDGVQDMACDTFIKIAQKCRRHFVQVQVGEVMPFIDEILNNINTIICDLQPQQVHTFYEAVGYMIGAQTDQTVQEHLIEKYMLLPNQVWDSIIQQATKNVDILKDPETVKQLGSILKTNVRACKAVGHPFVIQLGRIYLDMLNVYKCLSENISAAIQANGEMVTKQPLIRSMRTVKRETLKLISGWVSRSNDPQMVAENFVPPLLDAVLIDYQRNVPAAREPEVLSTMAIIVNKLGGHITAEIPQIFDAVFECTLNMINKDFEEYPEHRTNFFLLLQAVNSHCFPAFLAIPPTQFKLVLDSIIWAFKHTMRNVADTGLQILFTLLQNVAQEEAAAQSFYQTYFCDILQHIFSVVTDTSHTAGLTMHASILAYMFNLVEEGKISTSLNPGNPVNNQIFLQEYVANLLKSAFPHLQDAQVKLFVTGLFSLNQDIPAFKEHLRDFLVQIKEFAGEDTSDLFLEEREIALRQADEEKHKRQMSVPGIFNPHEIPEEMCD

Point of comparison: “TIRR-GFP WT (lentivirus-integrated, U2OS) (from UniProt Q9BRJ7) NES2”, response (band intensity relative to WT -ETO) 0.3. Against it:
- TIRR-GFP WT (lentivirus-integrated, U2OS) (from UniProt Q9BRJ7) NES1 — higher, 2.1
- TIRR-GFP WT (lentivirus-integrated, U2OS) (from UniProt Q9BRJ7) NES4 — higher, 1.3
- TIRR-GFP WT (lentivirus-integrated, U2OS) (from UniProt Q9BRJ7) RBM — higher, 0.9
- TIRR-GFP WT (lentivirus-integrated, U2OS) (from UniProt Q9BRJ7) NES3 — higher, 3.2
- TIRR-GFP WT (lentivirus-integrated, U2OS) (from UniProt Q9BRJ7) K10E — lower, 0.27
